# Measured values reported in US20220226442A1 (published 2022).
binder,measurement,setting,value
CD25 (receptor) ELCDDDPPEIPHATFKAMAYKEGTMLNCECKRGFRRIKSGSLYMLCTGNSSHSSWDNQCQCTSSATRNTTKQVTPQPEEQKERKTTEMQSPMQPVDQASLPGHCREPPPWENEATERIYHFVVGQMVYYQCVQGYRALHRGPAESVCKMTHGKTRWTQPQLICTGEMETSQFPGEEKPQASPEGRPESETSCLVTTTDFQIQTEMAATMETSIFTTEYQHHHHHH,Kd,V69A,0.023 nM
same,Kd,E68Q,0.022 nM
same,Kd,L72I,0.024 nM
same,Kd,M104D,0.028 nM
same,Kd,I114W,0.038 nM
same,Kd,N71Y,0.018 nM
